First the molecules themselves.
T1: Sso2 (a.a. 1–270), as used in size-exclusion chromatography (yeast, UniProt P39926 1-270)
T1 construct: Sso2, yeast t-SNARE, a.a; The text says that this complex was later used for crystallization, for which the methods give Sso2 a.a; 36-227 with the His6 tag cleaved; the legend's limits are kept
T1 sequence (looked up): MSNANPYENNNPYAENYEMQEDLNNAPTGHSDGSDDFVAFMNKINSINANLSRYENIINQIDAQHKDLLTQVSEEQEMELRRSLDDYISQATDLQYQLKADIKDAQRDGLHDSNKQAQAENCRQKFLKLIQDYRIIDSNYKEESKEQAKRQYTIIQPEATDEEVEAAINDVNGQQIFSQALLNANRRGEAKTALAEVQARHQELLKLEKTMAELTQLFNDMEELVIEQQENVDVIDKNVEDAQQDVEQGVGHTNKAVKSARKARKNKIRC

T2: GST-Sec3N (Sec3 N-terminus, a.a. 1–320) (yeast, UniProt P33332 1-320)
T2 construct: Sec3, yeast exocyst subunit, N-terminus a.a; 1-320; also called pG1860; source: E. coli BL21(DE3), purified (Glutathione Sepharose 4B)
T2 sequence (looked up): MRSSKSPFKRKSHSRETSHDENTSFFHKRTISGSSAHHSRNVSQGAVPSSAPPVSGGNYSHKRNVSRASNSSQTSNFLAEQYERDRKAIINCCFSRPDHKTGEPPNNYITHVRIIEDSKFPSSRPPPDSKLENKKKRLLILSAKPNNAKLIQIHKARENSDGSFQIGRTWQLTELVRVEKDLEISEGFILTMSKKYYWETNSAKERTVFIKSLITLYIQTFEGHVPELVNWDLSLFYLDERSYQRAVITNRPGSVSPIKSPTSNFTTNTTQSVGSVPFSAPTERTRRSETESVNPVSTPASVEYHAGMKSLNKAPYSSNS

T3: His6-Sso2-mutHL2 (a.a. 1–270, 170DVNGQ174 to 170GSSGG174) (yeast, UniProt P39926 1-270, 170DVNGQ174 to 170GSSGG174)
T3 construct: Sso2, yeast t-SNARE, cytosolic domain a.a; 1-270, mutated directly from pG707; also called pG1971
T3 sequence (looked up): T1 sequence (looked up) with D170G, V171S, N172S, Q174G

B1: Sso2 Habc and SNARE motif (a.a. 36–227) (domain or fragment, yeast, UniProt P39926 36-227, looked up)
chain: DFVAFMNKINSINANLSRYENIINQIDAQHKDLLTQVSEEQEMELRRSLDDYISQATDLQYQLKADIKDAQRDGLHDSNKQAQAENCRQKFLKLIQDYRIIDSNYKEESKEQAKRQYTIIQPEATDEEVEAAINDVNGQQIFSQALLNANRRGEAKTALAEVQARHQELLKLEKTMAELTQLFNDMEELVIE
notes: Sso2, yeast t-SNARE, Habc and the SNARE motif, a.a; 36-227; Cloned in pET15b; tag removed by thrombin; also called Sso2 (a.a. 36–227); source: E. coli BL21(DE3), purified (Ni-HiTrap, HiTrap-Q HP, Superdex-200); not shown: His6, N-terminal, cleaved
B2: Sec3 N-terminal domain (a.a. 75–320) (domain or fragment, yeast, UniProt P33332 75-320, looked up)
chain: SNFLAEQYERDRKAIINCCFSRPDHKTGEPPNNYITHVRIIEDSKFPSSRPPPDSKLENKKKRLLILSAKPNNAKLIQIHKARENSDGSFQIGRTWQLTELVRVEKDLEISEGFILTMSKKYYWETNSAKERTVFIKSLITLYIQTFEGHVPELVNWDLSLFYLDERSYQRAVITNRPGSVSPIKSPTSNFTTNTTQSVGSVPFSAPTERTRRSETESVNPVSTPASVEYHAGMKSLNKAPYSSNS
notes: Sec3, yeast exocyst subunit, N-terminal domain a.a; 75-320 (contains the PH domain); Cloned in the custom vector MalpET; tag cut off by tobacco etch virus protease; also called Sec3(a.a. 75–320); source: E. coli BL21(DE3), purified (Ni-HiTrap, HiTrap-Q HP, Superdex-200); not shown: MBP-His10, N-terminal, cleaved
B3: His6-Sso2 (cytosolic domain, a.a. 1–270) (domain or fragment, yeast, UniProt P39926 1-270, looked up)
chain: T1 sequence (looked up)
notes: Sso2, yeast t-SNARE, cytosolic domain a.a; 1-270; also called pG707
B4: GST-tagged Sec9 C-terminal SNARE domain (a.a. 414–651) (domain or fragment, yeast, UniProt P40357 414-651, looked up)
chain: EEARQQQEEDEAVDEIKQEIKFTKQSSVASTRNTLKMAQDAERAGMNTLGMLGHQSEQLNNVEGNLDLMKVQNKVADEKVAELKKLNRSILAVHVSNPFNSKRRRREREEQLKNRKIEEKLMREQTSQQLSQSTQRIEGAMNANNNISEVRERYQRKNVLEKAKRYQFENDEEDDEMELEIDRNLDQIQQVSNRLKKMALTTGKELDSQQKRLNNIEESTDDLDINLHMNTNRLAGIR
notes: Sec9, yeast t-SNARE (SNAP-23 homologue), C-terminal SNARE domain a.a; 414-651; also called GST-Sec9C; pG1067; source: E. coli BL21(DE3), purified (Glutathione Sepharose 4B)
B5: Sso2 reconstituted in liposomes (natural protein, yeast, UniProt P39926 1-295, looked up)
chain: MSNANPYENNNPYAENYEMQEDLNNAPTGHSDGSDDFVAFMNKINSINANLSRYENIINQIDAQHKDLLTQVSEEQEMELRRSLDDYISQATDLQYQLKADIKDAQRDGLHDSNKQAQAENCRQKFLKLIQDYRIIDSNYKEESKEQAKRQYTIIQPEATDEEVEAAINDVNGQQIFSQALLNANRRGEAKTALAEVQARHQELLKLEKTMAELTQLFNDMEELVIEQQENVDVIDKNVEDAQQDVEQGVGHTNKAVKSARKARKNKIRCLIICFIIFAIVVVVVVVPSVVETRK
notes: Sso2, yeast t-SNARE, called the full-length Sso2 in the fusion assays; also called Sso2 liposomes; t-SNARE liposomes reconstituted with Sso2; source: reconstituted in POPC/DOPS liposomes

Holding throughout (conditions): both partners purified
The target in experiment [1] is B2. Description: crystal structure; crystal form 1, space group C222(1); 0.1 M HEPES pH 7.0, 0.2 M NaCl, 25% PEG 3350; 2.20 Å.
Experiment [2] concerns the target T1, Sso2 (a.a. 1–270), as used in …. Description: SEC; Superdex-200 16/60 column; proteins applied individually or in mixture, Sso2 with excess Sec3N.
The target in experiment [3] is T2, GST-Sec3N (Sec3 N-terminus, a.a. 1–320). Description: pull-down; GST-Sec3N on glutathione Sepharose with His6-Sso2 or His6-Sec9C, or with both in three orders of addition (simultaneous; Sec3N and Sso2 pre-incubated 30 min; Sso2 and Sec9C pre-incubated 2 h); 5 μg His6-Sec9C; Coomassie blue.
The target in experiment [4] is B3. The experiment in a line: pull-down; time course as a6, but His6-Sso2 (2 μM) pre-incubated with His6-Sec3N (2 μM) for 30 min at 25 °C before GST-Sec9C (20 μg) on glutathione Sepharose 4B; apparent rate constant from a second-order fit.
For experiment [5], the target named is T3, His6-Sso2-mutHL2 (a.a. 1–270, …). Description: pull-down; time course: His6-Sso2 (2 μM) alone added to GST-Sec9C (20 μg) on glutathione Sepharose 4B, 100 μl, 25 °C; bound Sso2 quantified from Coomassie gels; apparent rate constant from a second-order fit.
Experiment [6] deals with B3. The description is as above.
The target of experiment [7] is T2, GST-Sec3N (Sec3 N-terminus, a.a. 1–320). The experiment in a line: co-sedimentation; liposomes containing Sso2 incubated with Sec9C in the presence or absence of Sec3N at 25 °C for 30 min; liposomes collected by sedimentation; SDS-PAGE, Coomassie blue; Sso2-free liposomes as control.

Positions count from the first letter of the chain named.

For B1, the binding result in experiment [1] is “binds”.

In the case of B2, the binding result in experiment [2] was “binds”.

On to B3, for which the binding result in experiment [3] is “binds”.

On to B4, for which the on-rate (kon) (in general, the second-order rate constant of association) in experiment [4] is 200 ± 90 M⁻¹ s⁻¹; in experiment [6], 15.2 ± 0.6 M⁻¹ s⁻¹. For the same molecule, the binding result in experiment [5] was “binds”.

Regarding B5, the binding result in experiment [7] is reported as “binds”.

The record behind these values is PMC5267525, “Sec3 promotes the initial binary t-SNARE complex assembly and membrane fusion” (Nature Communications, 2017).
